Data: patent US20170173105A1, “AUTOASSEMBLING PEPTIDES FOR THE TREATMENT OF PULMONARY LEAKAGE” (3-D MATRIX, LTD., priority 2014, published 2017)

Assays:
Type in all cases: physicochemical
[1] = Rheological properties of peptide solutions (1%) before and after DMEM treatment (rheometer); conditions: DMEM 2 minutes, compared with weaker peptide solutions (i.e. PuraMatrix®)
Protocol: The effects of Dulbecco's modified Eagle's medium (DMEM) (pH 7.4) on the rheological properties of IEIK13, KLD12, and PuraMatrix® were evaluated on a rheometer (AR500, TA Instruments) with 40 mm plates. DMEM is generally a cell culture medium that contains 6.4 g/L of NaCl, 3.4 g/L NaHCO3 (sodium bicarbonate), minor amounts of other salts, various amino acids, and 4.5 g/L of glucose. The pH level of DMEM is generally 7.2±0.2 and the osmolality is 335±30 mOsm/Kg H2O; both measurements are close to human physiological fluids such as blood.
Peptide solutions (1%) were kept at 4° C. for at least 48 hours before testing. To perform the experiment, 1 mL of peptide solution was gently pipetted and placed on the plate of the rheometer. 2 mL of DMEM solution was gently added around the peptide solution. The peptide solution was treated with DMEM for two minutes, then the media was removed, and the plates were placed at a measuring geometry gap at around 450 μm. Measurements were performed at 37° C. after 2 min of relaxation time. Frequency tests were performed from 1 rad/s to 100 rad/s at 1 Pa of oscillation stress.
The rheological properties of the peptides (1%) were compared before and after DMEM treatment for 2 minutes, as shown in FIG. 1A. […]

[2] = Gelation kinetics of pH adjusted peptides, time sweep with DMEM added
Protocol: The effect of pH level on the properties of gelation kinetics was evaluated to identify optimized pH levels for the peptides as described herein. Fast gelation kinetics of PuraMatrix® and other peptides within body fluid may generally improve its function and response time for various clinical applications. The pH level may impart response time to begin gelation when treated with simulated body fluid including but not limited to DMEM. […] A fast response time of PuraMatrix® and other peptides within body fluid may generally improve its function and response time for various clinical applications.
(§1) Time sweep tests were performed at 1 rad/sec and at 1 Pa with 20 mm plates and 500 μm gap distance. During time sweep test of PuraMatrix® 2.5% solution, DMEM was added into the chamber surrounding the measuring plates to soak PuraMatrix® solution at 0 time point. The results are shown in FIG. 9A for PuraMatrix® 2.5% solution.
as §1, with “IEIK13 1.5%” for “PuraMatrix® 2.5%”, “IEIK13 1.5%” for “PuraMatrix®”, “point and continuously data was recorded.” for “point.”, “9B” for “9A”

[3] = Rheological comparison of peptide hydrogels mixed with Ringer's Solution or indigo carmine
From the text: The two gels were: (1) a combination of the self-assembling peptide with a well-known cation/anion solution, Ringer's Solution (pH 5.3), used in the medical field and (2) a combination of the self-assembling peptide with a well-known contrast agent, indigo carmine, which is a dye solution containing sulfate (anion) and sodium (cation) ions. Indigo carmine contains indigoindisulfonate sodium (C16H8N2Na2O8S2), water, and sodium citrate […] for pH adjustment. Using indigo carmine powder, a 1% solution was prepared for use in experimentation. This corresponds to 10 mg/1 ml of water. The concentration of indigo carmine solution used in experimentation was 0.00585% in water.
Indigo carmine powder was used to prepare a 1% solution in deionized (DI) water. Using IEIK13 powder, a 2 percent solution was prepared using DI water. The amount of IEIK was weighed out and the appropriate amount of DI water was added gently down the side of the container. Mixing was accomplished by vortexing for about 30 seconds, and then sonicating for 30 seconds. The solution was then centrifuged for about 10 to about 15 minutes at […]. The solution may undergo further vortexing and centrifuging until the solution is clear and without bubbles.
To obtain a final concentration of 0.00585% indigo carmine, the necessary amount of 1% IC is added to the appropriate amount of DI water to dilute 2% IEIK to 1.5% IEIK. […]

[4] = with pH adjustment, PuraMatrix 2.5%, IEIK13 1.5% solution

| Substance | fold increase of storage modulus after DMEM treatment [1] | storage modulus response after DMEM addition [2, 4] | storage modulus response after DMEM addition ([2]; without pH adjustment, 1.5% solution) | properties of tailored hydrogel ([3]; 1.5% IEIK mixed with 0.00585% indigo carmine) | initial time without storage modulus increase after DMEM addition ([2]; without pH adjustment (pH 2.2), 2.5% solution) [s] | properties of tailored hydrogel ([3]; mixed with Ringer's Solution (pH 5.3)) |
| --- | --- | --- | --- | --- | --- | --- |
| Ile-Glu-Ile-Lys-Ile-Glu-Ile-Lys-Ile-Glu-Ile-Lys-Ile [IEIK13] | lower-fold increase | immediate storage modulus increase | immediate storage modulus increase | maintains stiffness, reversibility, and gelation kinetics | – | – |
| Arg-Ala-Asp-Ala-Arg-Ala-Asp-Ala-Arg-Ala-Asp-Ala-Arg-Ala-Asp-Ala [PuraMatrix ®] | – | immediate storage modulus increase | – | – | 13 | stiffer gel with faster gelation kinetics that maintains reversibility |
